Read-outs that look alike come from different tables or passages of the source.
T1: Recombinant Human DLL3 Protein (amino acids Ala27-Ala479, Cat #9749-DL, R&D Systems) (UniProt Q9NYJ7 27-479)
T1 chain: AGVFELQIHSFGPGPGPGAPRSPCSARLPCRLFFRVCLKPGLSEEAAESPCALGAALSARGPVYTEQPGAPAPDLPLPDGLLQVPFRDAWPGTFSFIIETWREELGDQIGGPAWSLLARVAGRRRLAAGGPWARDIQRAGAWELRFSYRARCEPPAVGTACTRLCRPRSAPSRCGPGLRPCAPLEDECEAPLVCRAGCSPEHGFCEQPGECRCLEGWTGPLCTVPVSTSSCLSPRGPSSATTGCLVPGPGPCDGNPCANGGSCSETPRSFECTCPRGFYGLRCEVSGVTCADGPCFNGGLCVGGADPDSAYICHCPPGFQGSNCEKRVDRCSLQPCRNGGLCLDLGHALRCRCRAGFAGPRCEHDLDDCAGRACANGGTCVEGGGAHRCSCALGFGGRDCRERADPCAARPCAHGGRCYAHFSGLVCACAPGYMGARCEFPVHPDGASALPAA

B1: 6-G23-F (antibody, V domains shown)
VH: QVQLVQSGAEVKKPGASVKVSCKASGYTFTSYYIHWVRQAPGQGLEWMGIIDPSDGSTNYAQKFQGRVTMTRDTSTSTVYMELSSLRSEDTAVYYCARDREYNYYGLDVWGQGTTVTVSS
VL: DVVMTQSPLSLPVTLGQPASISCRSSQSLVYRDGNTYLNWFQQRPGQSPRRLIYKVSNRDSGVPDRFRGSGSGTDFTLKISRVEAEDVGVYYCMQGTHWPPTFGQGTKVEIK
B2: 7-I1-B (antibody, V domains shown)
VH: EVQLVESGGGLVKPGGSLRLSCAASGFTFSNTWMSWVRQAPGKGLEWVGRIKSKSDGGTTDYAAPVKGRFTISRDDSKNTLYLQMNSLKTEDTAVYYCTQYYWNSFDYWGQGTLVTVSS
VL: not shown
B3: 2-C8-A (antibody, V domains shown)
VH: EVQLVESGGGLVQPGGSQRLSCAASGFTFSSYWMNWVRQAPGKGLEWVANIKEDGSEKYYVDSVKGRFTISRDNAKNSLYLQMNSLRAEDTAVYYCARDPGWAPFDYWGQGTLVTVSS
VL: DIQMSQSPSSLSASVGDRVTITCRASQGISNYLAWFQQKPGKAPKSLIYAASSLQSGVPSKFSGSGSGTDFTLAISSLQPEDFATYYCQQYNSFPYTFGQGTTLEIK
B4: 10-O18-A (antibody, V domains shown)
VH: QVQLQESGPGLVKPSETLSLTCTVSGGSINSYYWSWIRQPPGKGLEWIGYIFYSGITNYNPSLKSRVTISLDTSKNQFSLKLSSVTAADTAVYYCARIGVAGFYFDYWGQGTLVTVSS
VL: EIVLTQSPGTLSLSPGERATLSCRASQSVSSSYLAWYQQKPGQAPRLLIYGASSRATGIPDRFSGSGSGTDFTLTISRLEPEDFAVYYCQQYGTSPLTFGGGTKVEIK

Assays:
Test in all cases: BLI (Octet HTX)
[1] = molecular target: T1, Recombinant Human DLL3 Protein (amino …)
[2] = molecular target: T1, Recombinant Human DLL3 Protein (amino …)
[3] = molecular target: T1, Recombinant Human DLL3 Protein (amino …)

Binder	Kd [1] [nM]	Kd [2] [nM]	Kd [3] [nM]
B1	0.16	0.16	–
B2	0.686	0.68	–
B3	–	0.668	0.668
B4	–	0.62	0.602

Source: patent US20220348648A1 (published 2022)
